A short description of this data set: yeast display, Sf9 membrane polyspecificity reagent, FACS + sequencing; frameworks hold sequencing errors. The gist of the method: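 Nanobodies from a synthetic yeast display library (Saccharomyces cerevisiae BJ5465), induced 36–48 hours with galactose, were stained 1 hour at 4 °C with 10% biotinylated, detergent-solubilized Sf9 membrane reagent, enriched on streptavidin microbeads, then FACS-sorted. Anti-HA (expression) and streptavidin (reagent binding) fluorescence set low and high (top ~1%) gates. Polyreactivity labels come from the gate of origin. Genes were colony-PCR amplified, MiSeq 2 × 250 sequenced and filtered by CDR length.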
Consider “QVQLVESGGGLVQAGGSLRLSCAASGSIFYGNVMGWYRQAPGKERELVAAISSSGGSTYYADSVKGRFTISRDTAKNTVYLQMNSLKPEDTAVYYCAAYWWSRVVRGSRYDYWGQGTQVTVSS”, for which the “polyreactivity (PSR sort gate)” value was “low polyreactivity”.

With “QVQLVESGGGLVQAGGSLRLSCAASGSIFYGYAMGWSRQAPGKERELVAVITDGGGSTYYADSVKGRFTISRDNAKNTVYLQMNSLKPEDTAVYYCAADSWGPYYYSSYSYDYWGQGTQVTVSS”, the “polyreactivity (PSR sort gate)” value is recorded as “low polyreactivity”.

Take “QVQLVESGGGLVQAGGSLRLSCAASGSIFYGYAMGWYIQAPGKERELVAAISGNGGSTYFADSVKGRFTISRDNAKNTVYLQMNSLKTEDTAVYYCAVEVYHYGYEYDYWGQGTQVTVSS”: the “polyreactivity (PSR sort gate)” value is “high polyreactivity”.

Take “QVQLVESGGGLVQAGGSLRLSCAASGSIFYGYAMGWYRPAPGKERELVAAISSGGRTYYADSVKGRFTISRDNAKNTVYLQMNSLKPEDTAVYHCAASYWKPHRESGYDYWGQGTQVTVSS”: the “polyreactivity (PSR sort gate)” value is recorded as “high polyreactivity”.

Consider “QVQLVESGGGLVQAGGSLRLSCAASGSIFYGYAMGWYRQAPGKERELVAAISWSGTSTYYADSVKGRFTISRDNAKNTVYLQMNSLKPEDTAVYYCAADQFQGNSGFEYWGQGTQVTVSS”, for which the “polyreactivity (PSR sort gate)” value is “low polyreactivity”.

For the sequence “QVQLVESGGGLVQAGGSLRLSCAASGSIFYGYAMGWYRQAPGKERELVAAITGGGSTNYADSVKGRFTISRDNAKNTVYLQMNSLKPEDTAVYYCAAAPVSLPDYGYWGQGTQVTVSS”, the “polyreactivity (PSR sort gate)” value is on record as “low polyreactivity”.

For the sequence “QVQLVESGGGLVQAGGSLRLSCAASGSIFYGYAMGWYRQAPGKERELVAAITWSGGSTYYADSVKGRFTISRDNAKNTVYLQINSLKPEDTAVYYCNAVSTRFRVRTSDYWGQGTQVTVSS”, the “polyreactivity (PSR sort gate)” value is reported as “high polyreactivity”.

In the case of “QVQLVESGGGLVQAGGSLRLSCAASGSIFYGYAMGWYRQAPGKERELVATITSGDSTNYADSVKGRFTISRDNAKNTVYLQMNSLKPEDTAVYYCAADPAHYVFWYGRYGYDYWGQGTQVTVSS”, the “polyreactivity (PSR sort gate)” value is recorded as “low polyreactivity”.

With “QVQLVESGGGLVQAGGSLRLSCAASGSIFYHNAMGWYRQAPGKERELVAAITSGGSTHYADSVKGRFTISRDNAKNTVYLQMNSLKPEDTAVYYCNARDRRRTNLLDYWGQGTQVTVSS”, the “polyreactivity (PSR sort gate)” value was “low polyreactivity”.

As for “QVQLVESGGGLVQAGGSLRLSCAASGSIFYHNAMGWYRQAPGKERELVATISWRSASTYYADSVKGRFRISRDNAKNTVYLQMNSLKPEDTAVYYCAAKLQYRQYYYRYGYDYWGQGTQVTVSS”, the “polyreactivity (PSR sort gate)” value is given as “high polyreactivity”.

For the sequence “QVQLVESGGGLVQAGGSLRLSCAASGSIFYHYAMGWYRQAPGKEREFVAAITRRGTSTYYADSVKGRFTISRDNAKNTVYLQMNSLKPEDTAVYYCAARYGPNMDYCGQGTQVTVSS”, the “polyreactivity (PSR sort gate)” value is listed as “high polyreactivity”.

Take “QVQLVESGGGLVQAGGSLRLSCAASGSIFYHYAMGWYRQAPGKEWELVAAITITGGSTYYADSVKGRFTISRDNAKNTVYLQMNSLKPEDTAVYYCAAEGWYGYQWFDYWGQGTQVTVSS”: the “polyreactivity (PSR sort gate)” value is reported as “high polyreactivity”.

“QVQLVESGGGLVQAGGSLRLSCAASGSIFYINAMGWYRQAPGKERELVASISGGGGSTYYADSVKGRFTISRDNAKNTVYLQMNSLKPEDTAVYYCAARYRVYYLAGYEYWGQGTQVTVSS”: the “polyreactivity (PSR sort gate)” value was “high polyreactivity”.

On to “QVQLVESGGGLVQAGGSLRLSCAASGSIFYISAMGWYRQAPGKERELVAAISWIDDTTYYADSVKGRFTISRDNAKNTVYLQMNSLKPEDTAVYYCAAELENVYAGGQMDYWGQGTQVTVSS”, for which the “polyreactivity (PSR sort gate)” value is reported as “high polyreactivity”.

As for “QVQLVESGGGLVQAGGSLRLSCAASGSIFYIYAMGWYRQAPGKERELVASITFSGDITYYADSVKGRFTISRDNAKNTVYLQMNSLKPEDTAVYYCAADYHEQSYAVTYDYWGQGTQVTVSS”, the “polyreactivity (PSR sort gate)” value is given as “low polyreactivity”.

Turning to “QVQLVESGGGLVQAGGSLRLSCAASGSIFYLNAMGWYRQAPGKERELVAAISKRGSRTYYADSVKGRFTISRDNAKNTVYLQMNSLKPEDTAVYYCNALDTPGYNTEPARQYDHWGQGTQVTVSS”, the “polyreactivity (PSR sort gate)” value is on record as “high polyreactivity”.

Turning to “QVQLVESGGGLVQAGGSLRLSCAASGSIFYLYAMGWYRQAPGKERELVADINWNGGTYYADSVKGRFTISRDNAKNTVYLQMNSLKPEDTAVYYCAAYYYPYEYDYWGQGTQVTVSS”, the “polyreactivity (PSR sort gate)” value is on record as “high polyreactivity”.

In the case of “QVQLVESGGGLVQAGGSLRLSCAASGSIFYLYAMGWYRQAPGKERELVAGITTSGGTTYYADSVKGRFTISRDNAKNTVYLQMNSLKPEDTAVYYCNAAVGYYSLPYDYWGQGTQVTVSS”, the “polyreactivity (PSR sort gate)” value is “low polyreactivity”.

For “QVQLVESGGGLVQAGGSLRLSCAASGSIFYLYAMGWYRQAPGKERELVATITASGGSTNYADSVKGRFTISRDNAKNTVYLQMNSLKPEDTAVYYCAAEYYYLVYEYDYWGQGTQVTVSS”, the “polyreactivity (PSR sort gate)” value was “high polyreactivity”.

As for “QVQLVESGGGLVQAGGSLRLSCAASGSIFYNALGWYRQAPGKERELVASISWSGGTSTYYADSVKGLFTISRDNAKNTVYLQMNSMKPEDTAVYYCAKASRYSSYWMYYWGQGTQVTVSS”, the “polyreactivity (PSR sort gate)” value was “high polyreactivity”.

On to “QVQLVESGGGLVQAGGSLRLSCAASGSIFYNAMGGYRQAPGKERELVAGISSGTSTYYADSVKGRFTISRDNAKNTVYLLMNSLKPEDTEVYYCATRWSYRYGYWGQGTQVTVSS”, for which the “polyreactivity (PSR sort gate)” value is reported as “high polyreactivity”.

On to “QVQLVESGGGLVQAGGSLRLSCAASGSIFYNYGMGWYRQAAGKEGELVAAIRASGDSTYYADSVKGRFTISRDNAKNTLYLQINSQKPEDTAVYYCAARPNQSYNGLYYYWGQGTQVTVSS”, for which the “polyreactivity (PSR sort gate)” value is reported as “low polyreactivity”.

Consider “QVQLVESGGGLVQAGGSLRLSCAASGSIFYNYTMGWSRQAPGKERELVAAISSSGGSTYYADSVKGRFSISRDNAKITVYLQMNSLTPEDTAVYFCAARSPGYYRIVWYDYWGLGTQVTVSS”, for which the “polyreactivity (PSR sort gate)” value is listed as “high polyreactivity”.

For “QVQLVESGGGLVQAGGSLRLSCAASGSIFYPYAMGWYRKAPGKERELVAAIRRSGVDTYYADSVKGRFTISRDYAKNTYNLQMISLKPEDTAVYYCAADPYWFFAHYDSWGQGTQVTVSS”, the “polyreactivity (PSR sort gate)” value is given as “low polyreactivity”.

Take “QVQLVESGGGLVQAGGSLRLSCAASGSIFYPYAMGWYRPAPGTERELVASISWSGGSTRYADSVKGRFTISRDNAKNSVYLQMNSLKPEDTAVYYCNAGYRTRHISLYDYWGQGTQVTVSS”: the “polyreactivity (PSR sort gate)” value is “high polyreactivity”.

For the sequence “QVQLVESGGGLVQAGGSLRLSCAASGSIFYPYAMGWYRQAPGKERELVAAISSGGRTYYADSVKGRFTISRDNAKNTVYLQMNSLKPEDTAVFYCAARPKAYGRPPGYYWGQGTQVTVSS”, the “polyreactivity (PSR sort gate)” value is on record as “high polyreactivity”.

“QVQLVESGGGLVQAGGSLRLSCAASGSIFYPYAMGWYRQAPGKERELVAAISSSGGSTYYADSVKGRFTISRDNAKNTVYLQMNSLKPEDTAVYYCAADAATGIFDRLNYWGQGTQVTVSS”: the “polyreactivity (PSR sort gate)” value is “high polyreactivity”.

On to “QVQLVESGGGLVQAGGSLRLSCAASGSIFYPYAMGWYRQAPGKERELVAAITWSGGETYYADSVKGRFTISRDNAKNTVYLQMNSLKPEDTAVYYCAAEWNVSPYDYWGQGTQVTVSS”, for which the “polyreactivity (PSR sort gate)” value was “low polyreactivity”.

As for “QVQLVESGGGLVQAGGSLRLSCAASGSIFYPYAMGWYRQAPGKERELVASITINDGSTYYADSVKGRFTISRDNAKNTVYLQMNSLKTEDTSVYYCNVEPVPGFGSEYEYWGQGTQVTVSS”, the “polyreactivity (PSR sort gate)” value is reported as “low polyreactivity”.

As for “QVQLVESGGGLVQAGGSLRLSCAASGSIFYPYTMGWYRQAPGKERELVAAISGGCRTYYADSVKGRFTISRDNAKNTVYLQMNSLKPEDTAVYYCAARYGYRWLVGKYEYWGQGTQVTVSS”, the “polyreactivity (PSR sort gate)” value is “high polyreactivity”.

Regarding “QVQLVESGGGLVQAGGSLRLSCAASGSIFYQNAMGWYRHAPGKERELVAAITSDGSTYYADSVKGRFTISRDNAKKTVYLQMNSLKPEDTAVYYCAAEDYGHRYDYWGQGTQVTVSS”, the “polyreactivity (PSR sort gate)” value is listed as “low polyreactivity”.

On to “QVQLVESGGGLVQAGGSLRLSCAASGSIFYQNAMGWYRQAPGKERELVAAITSDGSTYYADSVKGRFTISRDNAKNTVYLQMNSLKPEDNAVYYCAAEYYVHRYDYWGQGTQVTVSS”, for which the “polyreactivity (PSR sort gate)” value is reported as “low polyreactivity”.

Regarding “QVQLVESGGGLVQAGGSLRLSCAASGSIFYRNALGWYRQAPGKERELVAAISSDGSTNYADSVKGRFTISRDNAKNTVYLQMNSLKPEDTAVYYCAAPWTQILDYWGQGTQVTVSS”, the “polyreactivity (PSR sort gate)” value was “low polyreactivity”.

As for “QVQLVESGGGLVQAGGSLRLSCAASGSIFYRNAMGWSRQAPGKERELVAAISASGGSTYYADSVKGRFTISRDNAKNTVYLQMNSLKPEDTAVYYCAVEYRKSRSYAPMGYWGQGTQVTVSS”, the “polyreactivity (PSR sort gate)” value is given as “high polyreactivity”.

As for “QVQLVESGGGLVQAGGSLRLSCAASGSIFYRNAMGWYRQAPGKERELVAAISSDGSTNYADSVKGRFTISRDNAKNTVYLQMNSLKPEDTAVYDCAGLQKRRSYWRPFYWGQGTQVTVSS”, the “polyreactivity (PSR sort gate)” value is “low polyreactivity”.

On to “QVQLVESGGGLVQAGGSLRLSCAASGSIFYRNAMGWYRQAPGKERELVAAISSDGSTNYADSVKGRFTISRDNAKNTVYLQMNSLKPEDTAVYYCAAPWTHILDYWGQGTQVTVSS”, for which the “polyreactivity (PSR sort gate)” value is “low polyreactivity”.

Regarding “QVQLVESGGGLVQAGGSLRLSCAASGSIFYRNAMGWYRQAPGKERELVAAISSDGSTNYADSVTGRFTISRDNAKNTVYLQMNSLKPEDTAVYYCAAPWTQILDYWGQGTQVTVSS”, the “polyreactivity (PSR sort gate)” value is listed as “low polyreactivity”.

“QVQLVESGGGLVQAGGSLRLSCAASGSIFYRNAMGWYRQAPGKERELVAAISSRGTRTYYADSVKGRFTISRDNAKNTVYLQMNSLKPEDTAVYYCAAADYRFYNGPYSRRWLYGYWGQGTQVTVSS”: the “polyreactivity (PSR sort gate)” value is “high polyreactivity”.

For the sequence “QVQLVESGGGLVQAGGSLRLSCAASGSIFYRNAMGWYRQAPGKERELVAAISSSVSSTYYADSVKGRFTISRDNAKNTVYLQMNSLKPEDTAVYYCAARRVQRGGDYVYRYLYDYWGQGTQVTVSS”, the “polyreactivity (PSR sort gate)” value is “low polyreactivity”.

Consider “QVQLVESGGGLVQAGGSLRLSCAASGSIFYRNAMGWYRQAPGKERELVAAITRSDGRTYYADSVKGRFTISRDNAKNTVYLLMNSLKPEDTAVYYCAADYSFGYRDFYYWGQGTQVTVSS”, for which the “polyreactivity (PSR sort gate)” value was “low polyreactivity”.

In the case of “QVQLVESGGGLVQAGGSLRLSCAASGSIFYRNAMGWYRQTPGKERELVAAISSDGSTNYADSVKGRFTFSLDNAKNTVYLQMNRLNPEYTAVYYCAAPWTQFLDYWGQGTQVTVSS”, the “polyreactivity (PSR sort gate)” value is “low polyreactivity”.
